Reference: PMC3102117, “L,L-Diaminopimelate Aminotransferase from Chlamydomonas reinhardtii: A Target for Algaecide Development” (PLoS ONE, 2011)

How the values were obtained:
[1] = biological target: L,L-diaminopimelate aminotransferase from Chlamydomonas reinhardtii (Chlamydomonas reinhardtii); assay: AUC; sedimentation velocity, 9.2 µM (0.45 mg/mL) Cr-DapL, 20 °C, 50 mM HEPES, 0.5 mM DTT, 1 mM EDTA, 50 mM NaCl pH 8.0, 45,000 rpm; c(s) and c(M) distributions in SEDFIT
purified protein [2] = substrate: O=C(O)CCC(=O)C(=O)O; assay: purified protein; type: biochemical, Chlamydomonas reinhardtii; settings: reverse direction, amino acceptor, saturating L,L-DAP, 0.3 mM NADPH, 50 mM NH4Cl, 100 mM HEPES-KOH pH 7.6, 30 °C
purified protein [3] = substrate: N[C@@H](CCC[C@H](N)C(=O)O)C(=O)O; assay: purified protein; type: biochemical, Chlamydomonas reinhardtii; settings: reverse direction, amino donor, saturating 2-oxoglutarate, 0.3 mM NADPH, 50 mM NH4Cl, 100 mM HEPES-KOH pH 7.6, 30 °C
purified protein [4] = substrate: O=C(O)C1=N[C@H](C(=O)O)CCC1; assay: purified protein; type: biochemical, Chlamydomonas reinhardtii; settings: forward direction, co-substrate glutamate 5.0 mM, THDPA generated in situ from meso-DAP by C. glutamicum Ddh with NADP, 100 mM HEPES-KOH pH 7.6
purified protein [5] = substrate: N[C@@H](CCC(=O)O)C(=O)O; assay: purified protein; type: biochemical, Chlamydomonas reinhardtii; settings: forward direction, amino donor, saturating THDPA generated in situ from meso-DAP by C. glutamicum Ddh, 100 mM HEPES-KOH pH 7.6

Row | stoichiometry N [1] | Molecule | Km (purified protein [2]) [µM] | kcat (purified protein [2]) [s⁻¹] | Km (purified protein [3]) [µM] | Vmax (purified protein [3]) [µmol/min/mg] | kcat (purified protein [3]) [s⁻¹] | Km (purified protein [4]) [µM] | Vmax (purified protein [4]) [µmol/min/mg] | kcat (purified protein [4]) [s⁻¹] | Km (purified protein [5]) [µM] | kcat (purified protein [5]) [s⁻¹]
1 | 2 | L,L-diaminopimelate aminotransferase from Chlamydomonas reinhardtii (enzyme) | – | – | – | – | – | – | – | – | – | –
2 | – | Cr-DapL (Chlamydomonas reinhardtii) (protein, monomeric mass 48,830 Da; dimer; EC 2.6.1.83) MQLNVRSTASGARSSTRSRRMTAVVQAVAQRAGTIDVQRNENFGKLRAGYLFPEIARRRKAHQEKNPDAKIISLGIGDTTEPLPKYIADAMAKAAAGLATREGYSGYGAEQGQGALREAVASTFYGHAGRAADEIFISDGSKCDIARIQMMFGSKPTVAVQDPSYPVYVDTSVMMGMTGDHNGTGFDGIEYMVCNPDNHFFPDLSKAKRTDIIFFCSPNNPTGAAATRAQLTELVNFARKNGSILVYDAAYALYISNPDCPKTIYEIPGADEVAIETCSFSKYAGFTGVRLGWTVVPKALKYANGEPVHADWNRVMTTCFNGASNIVQAGGLACLQPEGLKEMNAMIKFYKENAQILKTTFTEMGFSVYGGDDAPYIWVGFPGKPSWDVFAEILERCNIVTTPGSGFGPAGEGFVRASAFGSRENILEAVRRFKEAYGKRN | 2200 ± 700 | 19.0 | 300 ± 20 | 11.6 | 19 | 100 ± 10 | 0.68 | 1.1 | 900 ± 400 | 1.1
